In paper PMC12172430:

Target: DS-Cav1 (soluble trimeric RSV prefusion F ectodomain) (respiratory syncytial virus | bacteriophage T4) (UniProt P03420)
Experiment: native gel or EMSA; native-PAGE and native western blot of the purified soluble RSV F protein

Substance: DS-Cav1 (soluble trimeric RSV prefusion F ectodomain) (from UniProt P03420 26-513)
- stoichiometry N: 3
